Legend:
[1] = Size exclusion chromatography (SEC) of ADC monomer and aggregates; type: physicochemical; settings: anti-Trop-2 ADC with the named payload, Cysteine conjugation
Method: Some embodiments of the invention relate to DM1s linked to antibodies via a non-cleavable linker. In this example, anti-Trop-2 antibody was reduced by adding antibody to TCEP (Tris (2-carboxyethyl) phosphine) dissolved in a pH-adjusted PBS EDTA buffer. The antibody/TCEP solution was incubated at 37° C. for 2-3 hrs. The reduced antibodies were buffer exchanged into conjugation reaction buffer. The BI-P203 payload dissolved in DMSO was added to a solution of reduced anti-Trop-2 monoclonal antibody at payload/antibody ratio of 7-30:1 in order to achieve different drug to antibody ratios (DARs). The payload/antibody solution was incubated for 1-2 hr at 20° C. while the reduced antibody was conjugated to BI-P203 payload via the maleimide group. After conjugation was completed, the reaction mixture was desalted and concentrated to yield anti-Trop-2-DM1 ADCs. The biochemical properties of the resulting ADCs were characterized using size-exclusion chromatography high pressure liquid chromatography (SEC-HPLC) to determine purity and aggregation content, and by using hydrophobic interaction chromatography HPLC (HIC-HPLC) to confirm drug loading (DAR). The conjugation procedure is illustrated in FIG. 12. The final ADC products are comprised of four or six or seven DM1-linker molecules. The cysteine conjugation method used in the conjugation process produces more homogenous ADCs compared to lysine conjugation method.

[2] = tested on: MDA-MB-468, SK-BR-3, Colo205, and A549 cells; assay: In vitro cytotoxicity assay of ADCs and free payloads (FIG. 20); type: cell-based; settings: all tested cells
Method: Anti-Trop-2 ADCs were conjugated with different DM1 derivatives with similar DARs, and were tested ahead to ahead with anti-Trop-2-SMCC-DM1 and anti-Trop-2-vc-MMAE against BxPC-3 pancreatic cancer cells representing high Trop-2 expression, MDA-MB-468 breast cancer cells, N87 gastric cancer cells, and SK-BR-3 […] cancer cells representing moderate Trop-2 expression, Colo205 colon cancer cells representing low Trop-2 expression, and A549 lung cancer cells and MDA-MB-231 breast cancer cells with undetectable level of Trop-2. In vitro cytotoxicity assay was performed. Briefly, all cell lines were cultured in a suitable culture medium at 37° C. in a humidified incubator atmosphere of 5% CO2. Cells were plated in 96-well flat bottom plates. Cell seeding number ranged from 500 cells//100 ul/well to 6,000 cells/100 μl/well. Cells were allowed to adhere overnight at 37° C. in a humidified atmosphere of 5% CO2. ADCs were prepared from stock solution and diluted into appropriated working concentration 24 hours after cell seeding. […] Cell Counting Kit-8 solution (Dojindo China Co., Ltd, lot #PL701) was added to the wells for 1-4 hours at 37° C. and the absorbance at 450 nm was measured using a Microplate Reader (SpectraMax M5, Molecular Devices) and SoftMax Pro5.4.1 software. Dose-response curves were generated and IC50 was calculated using GraphPad Prism 7 three-parameter curve fitting. […]

[3] = target: T1, Trophoblast cell-surface antigen-2 (Trop-2) (human, UniProt P09758 27-323); assay: cell-based or functional assay
T1 sequence (looked up): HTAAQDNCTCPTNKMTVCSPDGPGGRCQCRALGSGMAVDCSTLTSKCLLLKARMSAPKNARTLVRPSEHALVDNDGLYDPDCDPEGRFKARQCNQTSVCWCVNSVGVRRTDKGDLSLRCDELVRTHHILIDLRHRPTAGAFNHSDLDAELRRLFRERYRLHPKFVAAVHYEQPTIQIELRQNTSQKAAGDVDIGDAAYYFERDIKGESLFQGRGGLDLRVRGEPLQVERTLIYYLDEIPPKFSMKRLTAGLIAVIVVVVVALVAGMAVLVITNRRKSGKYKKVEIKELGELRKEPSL

COc1cc2cc(c1Cl)N(C)C(=O)C[C@H](OC(=O)[C@H](C)N(C)C(=O)CCCCCn1cc(COCCOCCOCCOCCNC(=O)CCN3C(=O)C=CC3=O)nn1)[C@@]1(C)O[C@H]1[C@H](C)[C@@H]1C[C@@](O)(NC(=O)O1)C(OC)/C=C/C=C(\C)C2 (stereo partly shown) [BI-P204]
Aggregation rate (%) ([1]; DAR 2.8): 0.65%

COc1cc2cc(c1Cl)N(C)C(=O)C[C@H](OC(=O)C1CCN(C(=O)CCOCCOCCOCCOCCNC(=O)CCN3C(=O)C=CC3=O)CC1)[C@@]1(C)O[C@H]1[C@H](C)[C@@H]1C[C@@](O)(NC(=O)O1)C(OC)/C=C/C=C(\C)C2 (stereo partly shown) [BI-P206]
Aggregation rate (%) ([1]; DAR 3.6): 0.76%

COc1cc2cc(c1Cl)N(C)C(=O)C[C@H](OC(=O)C1CCN(C(=O)CCOCCOCCOCCOCCOCCOCCNC(=O)CCN3C(=O)C=CC3=O)CC1)[C@@]1(C)O[C@H]1[C@H](C)[C@@H]1C[C@@](O)(NC(=O)O1)C(OC)/C=C/C=C(\C)C2 (stereo partly shown) [BI-P207]
Aggregation rate (%) ([1]; DAR 3.4): 1.02%

COc1cc2cc(c1Cl)N(C)C(=O)C[C@H](OC(=O)C1CCC(CNC(=O)CCOCCOCCOCCOCCNC(=O)CCN3C(=O)C=CC3=O)CC1)[C@@]1(C)O[C@H]1[C@H](C)[C@@H]1C[C@@](O)(NC(=O)O1)C(OC)/C=C/C=C(\C)C2 (stereo partly shown) [BI-P208]
Aggregation rate (%) ([1]; DAR 3.0): 2.04% | Aggregation rate (%) ([1]; DAR 6.7): 9.46% | Aggregation rate (%) ([1]; DAR 7.3): 6.02%

COc1cc2cc(c1Cl)N(C)C(=O)C[C@H](OC(=O)[C@H](C)N(C)C(=O)COCCn1cc(COCCOCCOCCNC(=O)CCN3C(=O)C=CC3=O)nn1)C1(C)O[C@H]1[C@H](C)[C@@H]1C[C@@](O)(NC(=O)O1)C(OC)/C=C/C=C(\C)C2 (stereo partly shown) [BI-P209]
Aggregation rate (%) ([1]; DAR 6.2): 4.96% | in vitro cytotoxic potency of the free payload compared with free BI-P203 [2]: slightly more potent than free BI-P203

B1: Anti-Trop-2-BI-P203 (antibody, V domains shown)
VH: SALMSRLTISKDTSKNQFSLKLSSVTAADTAVYYCARDENWDGAWFAYWGQGTLVTVSS
VL: DIVMTQSPDSLAVSLGERATINCKSSQSLLNSGTRKNYLAWYQQKPGQPPKLLISWASSRESGVPDRFSGSGSGTDFTLTISSLQAEDVAVYYCKQSYNLFTFGGGTKVEIKR
modifications: BI-P203 maytansinoid drug-linker on reduced cysteines via the maleimide group; positions not given; DAR 3.5, 5.1 or 7
IC50 (nM), in vitro cytotoxicity (CCK-8, 72 h), BxPC-3 cells (TROP2 +++), ADC at DAR 3.5 [3]: 0.48 nM | IC50 (nM), in vitro cytotoxicity (CCK-8, 72 h), BxPC-3 cells (TROP2 +++), ADC at DAR 7 [3]: 0.59 nM | IC50 (nM), in vitro cytotoxicity (CCK-8, 72 h), Colo205 cells (TROP2 +), ADC at DAR 7 [3]: 31.8 nM | IC50 (nM), in vitro cytotoxicity (CCK-8, 72 h), MDA-MB-468 cells (TROP2 ++), ADC at DAR 5.1 [3]: 1.2 nM | IC50 (nM), in vitro cytotoxicity (CCK-8, 72 h), MDA-MB-468 cells (TROP2 ++), ADC at DAR 7 [3]: 0.77 nM | IC50 (nM), in vitro cytotoxicity (CCK-8, 72 h), NCI-N87 cells (TROP2 ++/+), ADC at DAR 3.5 [3]: 8.93 nM | IC50 (nM), in vitro cytotoxicity (CCK-8, 72 h), NCI-N87 cells (TROP2 ++/+), ADC at DAR 7 [3]: 0.62 nM

B2: Anti-Trop-2-BI-P207 (antibody, V domains shown)
VH: B1 VH
VL: B1 VL
modifications: BI-P207 maytansinoid drug-linker on cysteines; positions not given; DAR 3.4 or 4.5
IC50 (nM), in vitro cytotoxicity (CCK-8, 72 h), BxPC-3 cells (TROP2 +++), ADC at DAR 3.4 [3]: 2.09 nM | IC50 (nM), in vitro cytotoxicity (CCK-8, 72 h), MDA-MB-468 cells (TROP2 ++), ADC at DAR 4.5 [3]: 4.29 nM | IC50 (nM), in vitro cytotoxicity (CCK-8, 72 h), NCI-N87 cells (TROP2 ++/+), ADC at DAR 3.4 [3]: 33.8 nM

B3: Anti-Trop-2-SMCC-DM1 (antibody, V domains shown)
VH: B1 VH
VL: B1 VL
modifications: SMCC-DM1 on lysines; positions not given; DAR 4
IC50 (nM), in vitro cytotoxicity (CCK-8, 72 h), BxPC-3 cells (TROP2 +++), ADC at DAR 4 [3]: 1.01 nM | IC50 (nM), in vitro cytotoxicity (CCK-8, 72 h), Colo205 cells (TROP2 +), ADC at DAR 4 [3]: 56.4 nM | IC50 (nM), in vitro cytotoxicity (CCK-8, 72 h), MDA-MB-468 cells (TROP2 ++), ADC at DAR 4 [3]: 4.88 nM | IC50 (nM), in vitro cytotoxicity (CCK-8, 72 h), NCI-N87 cells (TROP2 ++/+), ADC at DAR 4 [3]: 2.88 nM

B4: Anti-Trop-2-BI-P208 (antibody, V domains shown)
VH: B1 VH
VL: B1 VL
modifications: BI-P208 maytansinoid drug-linker on cysteines; positions not given; DAR 3.0 or 4.3
IC50 (nM), in vitro cytotoxicity (CCK-8, 72 h), BxPC-3 cells (TROP2 +++), ADC at DAR 3.0 [3]: 0.67 nM | IC50 (nM), in vitro cytotoxicity (CCK-8, 72 h), MDA-MB-468 cells (TROP2 ++), ADC at DAR 4.3 [3]: 2.22 nM | IC50 (nM), in vitro cytotoxicity (CCK-8, 72 h), NCI-N87 cells (TROP2 ++/+), ADC at DAR 3.0 [3]: 6.43 nM

B5: Anti-Trop-2-BI-P205 (antibody, V domains shown)
VH: B1 VH
VL: B1 VL
modifications: BI-P205 maytansinoid drug-linker on cysteines; positions not given; DAR 3.6, 4.9 or 7.1
IC50 (nM), in vitro cytotoxicity (CCK-8, 72 h), BxPC-3 cells (TROP2 +++), ADC at DAR 3.6 [3]: 0.43 nM | IC50 (nM), in vitro cytotoxicity (CCK-8, 72 h), BxPC-3 cells (TROP2 +++), ADC at DAR 7.1 [3]: 0.52 nM | IC50 (nM), in vitro cytotoxicity (CCK-8, 72 h), Colo205 cells (TROP2 +), ADC at DAR 7.1 [3]: 26.1 nM | IC50 (nM), in vitro cytotoxicity (CCK-8, 72 h), MDA-MB-468 cells (TROP2 ++), ADC at DAR 4.9 [3]: 1.58 nM | IC50 (nM), in vitro cytotoxicity (CCK-8, 72 h), MDA-MB-468 cells (TROP2 ++), ADC at DAR 7.1 [3]: 0.47 nM | IC50 (nM), in vitro cytotoxicity (CCK-8, 72 h), NCI-N87 cells (TROP2 ++/+), ADC at DAR 3.6 [3]: 0.282 nM

B6: Anti-Trop-2-BI-P206 (antibody, V domains shown)
VH: B1 VH
VL: B1 VL
modifications: BI-P206 maytansinoid drug-linker on cysteines; positions not given; DAR 3.6 or 4.5
IC50 (nM), in vitro cytotoxicity (CCK-8, 72 h), BxPC-3 cells (TROP2 +++), ADC at DAR 3.6 [3]: 0.99 nM | IC50 (nM), in vitro cytotoxicity (CCK-8, 72 h), MDA-MB-468 cells (TROP2 ++), ADC at DAR 4.5 [3]: 2.66 nM | IC50 (nM), in vitro cytotoxicity (CCK-8, 72 h), NCI-N87 cells (TROP2 ++/+), ADC at DAR 3.6 [3]: 125 nM

B7: Anti-Trop-2-BI-P209 (antibody, V domains shown)
VH: B1 VH
VL: B1 VL
modifications: BI-P209 maytansinoid drug-linker on cysteines; positions not given; DAR 6.2
IC50 (nM), in vitro cytotoxicity (CCK-8, 72 h), Colo205 cells (TROP2 +), ADC at DAR 6.2 [3]: > 500 nM | IC50 (nM), in vitro cytotoxicity (CCK-8, 72 h), MDA-MB-468 cells (TROP2 ++), ADC at DAR 6.2 [3]: 5.37 nM

B8: Anti-Trop-2-BI-P204 (antibody, V domains shown)
VH: B1 VH
VL: B1 VL
modifications: BI-P204 maytansinoid drug-linker on cysteines; positions not given; DAR 2.8 or 3.9
IC50 (nM), in vitro cytotoxicity (CCK-8, 72 h), BxPC-3 cells (TROP2 +++), ADC at DAR 2.8 [3]: 0.38 nM | IC50 (nM), in vitro cytotoxicity (CCK-8, 72 h), MDA-MB-468 cells (TROP2 ++), ADC at DAR 3.9 [3]: 1.81 nM | IC50 (nM), in vitro cytotoxicity (CCK-8, 72 h), NCI-N87 cells (TROP2 ++/+), ADC at DAR 2.8 [3]: 17.6 nM

B9: Anti-Trop-2-Vc-MMAE (antibody, V domains shown)
VH: B1 VH
VL: B1 VL
modifications: vc-MMAE drug-linker; conjugation site not stated; DAR 4
IC50 (nM), in vitro cytotoxicity (CCK-8, 72 h), BxPC-3 cells (TROP2 +++), ADC at DAR 4 [3]: 0.51 nM | IC50 (nM), in vitro cytotoxicity (CCK-8, 72 h), Colo205 cells (TROP2 +), ADC at DAR 4 [3]: 0.68 nM | IC50 (nM), in vitro cytotoxicity (CCK-8, 72 h), MDA-MB-468 cells (TROP2 ++), ADC at DAR 4 [3]: 0.54 nM | IC50 (nM), in vitro cytotoxicity (CCK-8, 72 h), NCI-N87 cells (TROP2 ++/+), ADC at DAR 4 [3]: 0.49 nM

Source: patent publication US20230256114A1, “NOVEL MAYTANSINOIDS AS ADC PAYLOADS AND THEIR USE FOR THE TREATMENT OF CANCER” (priority 2020, published 2023)
